Changes are numbered by the printed parent chain. Numbers in names are those of the source.

Experimental findings from US20150158912A1 (CLEVELAND CLINIC FOUNDATION, published 2015) are described below.

Assay [1] deals with T1, Act1 in IL-17RB-deficient MEFs reconstituted with Myc-tagged IL-17RB (mouse (cells are mouse embryonic …, UniProt Q8N7N6 1-555)).
T1 construct: That the co-precipitated Act1 is the cells' own is read from the description of the experiment
T1 sequence (looked up): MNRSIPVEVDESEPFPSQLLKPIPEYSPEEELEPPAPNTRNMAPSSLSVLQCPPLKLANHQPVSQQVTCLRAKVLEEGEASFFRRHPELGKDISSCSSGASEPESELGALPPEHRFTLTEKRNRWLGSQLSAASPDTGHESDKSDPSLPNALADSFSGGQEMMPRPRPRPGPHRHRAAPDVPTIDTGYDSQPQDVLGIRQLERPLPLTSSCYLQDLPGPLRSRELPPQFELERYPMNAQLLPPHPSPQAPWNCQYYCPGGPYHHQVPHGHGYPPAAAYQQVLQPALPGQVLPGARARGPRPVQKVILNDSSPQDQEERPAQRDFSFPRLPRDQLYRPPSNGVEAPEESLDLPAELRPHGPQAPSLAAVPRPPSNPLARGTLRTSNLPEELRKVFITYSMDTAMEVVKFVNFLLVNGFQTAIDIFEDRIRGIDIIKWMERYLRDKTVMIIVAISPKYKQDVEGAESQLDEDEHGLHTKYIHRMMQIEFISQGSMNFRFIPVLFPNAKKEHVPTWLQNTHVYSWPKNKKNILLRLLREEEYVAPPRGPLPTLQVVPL
As to the kind of experiment: co-immunoprecipitation in reconstituted IL-17RB-deficient MEFs (IP anti-Myc).

The target in assay [2] is T2, V5-tagged human IL-17RA, wild type (human, UniProt Q96F46 33-866, limits assumed).
T2 construct: Expressed in HeLa cells and immunoprecipitated from the lysate; also called V5-tagged IL-17RA; the wild-type receptor
T2 sequence (looked up): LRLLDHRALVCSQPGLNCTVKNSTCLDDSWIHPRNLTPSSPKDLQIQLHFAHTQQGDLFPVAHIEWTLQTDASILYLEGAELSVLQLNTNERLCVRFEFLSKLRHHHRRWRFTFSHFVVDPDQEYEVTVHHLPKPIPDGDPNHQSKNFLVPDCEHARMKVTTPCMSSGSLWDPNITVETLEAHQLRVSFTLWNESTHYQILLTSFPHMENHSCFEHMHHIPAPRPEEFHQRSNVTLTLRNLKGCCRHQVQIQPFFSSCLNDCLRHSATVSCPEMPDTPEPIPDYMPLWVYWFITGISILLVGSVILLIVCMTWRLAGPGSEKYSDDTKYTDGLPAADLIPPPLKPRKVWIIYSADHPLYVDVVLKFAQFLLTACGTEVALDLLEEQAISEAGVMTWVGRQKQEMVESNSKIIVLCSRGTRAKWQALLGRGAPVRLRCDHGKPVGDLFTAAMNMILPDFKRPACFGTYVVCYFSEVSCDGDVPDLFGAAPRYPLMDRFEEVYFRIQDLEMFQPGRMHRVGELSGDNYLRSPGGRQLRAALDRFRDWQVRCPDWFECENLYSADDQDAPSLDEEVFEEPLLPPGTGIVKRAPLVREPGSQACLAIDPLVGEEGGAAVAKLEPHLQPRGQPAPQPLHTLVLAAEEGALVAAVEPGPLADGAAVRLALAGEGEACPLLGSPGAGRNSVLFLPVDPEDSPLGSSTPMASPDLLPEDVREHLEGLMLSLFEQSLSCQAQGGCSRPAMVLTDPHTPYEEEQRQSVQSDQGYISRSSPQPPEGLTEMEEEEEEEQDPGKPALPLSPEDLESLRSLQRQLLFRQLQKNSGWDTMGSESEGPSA
As to the kind of experiment: co-immunoprecipitation, as told back in Example 9.

B1: Myc-tagged mouse IL-17RB point mutant L419D (receptor, UniProt Q9JIP3 18-499, looked up)
chain: REPTIQCGSETGPSPEWMVQHTLTPGDLRDLQVELVKTSVAAEEFSILMNISWILRADASIRLLKATKICVSGKNNMNSYSCVRCNYTEAFQSQTRPSGGKWTFSYVGFPVELSTLYLISAHNIPNANMNEDSPSLSVNFTSPGCLNHVMKYKKQCTEAGSLWDPDITACKKNEKMVEVNFTTNPLGNRYTILIQRDTTLGFSRVLENKLMRTSVAIPVTEESEGAVVQLTPYLHTCGNDCIRREGTVVLCSETSAPIPPDDNRRMLGGWLPLFLVLLVAVWVLAAGIYLTWRQGRSTKTSFPISTMLLPLIKVLVVYPSEICFHHTVCRFTDFLQNYCRSEVILEKWQKKKIAEMGPVQWLTTQKQAADKVVFLLPSDVPTLCDSACGHNEGSARENSQDDFPLAFNLFCSDFSSQTHLHKYLVVYLGGADLKGDYNALSVCPQYHLMKDATAFHTELLKATQSMSVKKRSQACHDSCSPL
In the case of B1, in assay [1], the binding result is on record as “no binding”.

B2: Myc-tagged mouse IL-17RB point mutant L422D (receptor, UniProt Q9JIP3 18-499, looked up)
chain: B1 chain with D402L, L405D
Regarding B2, the binding result in assay [1] is on record as “no binding”.

B3: FLAG-tagged mouse Act1 point mutant H472D (other, UniProt Q8N7N6 1-555, looked up)
chain: T1 sequence (looked up) with H475D
Regarding B3, in assay [2], the binding result is “no binding”.
